The values that follow come from patent publication US20060292634A1.

For test [1], the target named is ELK (3% skim milk powder solution). The experiment in a line: ELISA, ELK-coated control well, ~5 ng iMab per well, anti-VSV-HRP; urea-purified.
Test [2] has the same target. The experiment in a line: ELISA, ELK-coated control well, ~50 ng iMab per well, anti-VSV-HRP; urea-purified. Background: An ELISA detects its analyte on a solid surface through an enzyme-linked reagent.
The target is the same in test [3]. The experiment in a line: ELISA, ELK-coated control well, ~20 ng iMab per well, anti-VSV-HRP; urea-purified.
Test [4] deals with chicken lysozyme (chicken), P00698. The experiment in a line: ELISA vs. lysozyme, iMab dilution 1:100, after precipitation at pH 4.8 and redissolving. The note with it: remark: other sources report otherwise.
Test [5] has as its target ELK (3% skim milk powder solution). The experiment in a line: ELISA, ELK-coated control well, ~50 ng iMab per well, anti-VSV-HRP; heat (60 °C) purified.
For test [6], the target named is chicken lysozyme (chicken), P00698. The experiment in a line: ELISA vs. lysozyme, iMab dilution 1:10, before pH 4.8 precipitation. The note with it: remark: other sources report otherwise.
The target is the same in test [7]. The experiment in a line: ELISA vs. lysozyme, iMab dilution 1:10,000, before pH 4.8 precipitation. The conditions noted are these: remark: other sources report otherwise.
The target is the same in test [8]. The experiment in a line: ELISA vs. lysozyme, iMab dilution 1:1000, before pH 4.8 precipitation. The note with it: remark: other sources report otherwise.
The target is the same in test [9]. The experiment in a line: ELISA vs. lysozyme, iMab dilution 1:10, after precipitation at pH 4.8 and redissolving. The note with it: remark: other sources report otherwise.
The target is the same in test [10]. The experiment in a line: ELISA, lysozyme-coated well (100 µg/ml), ~50 ng iMab per well, anti-VSV-HRP; urea-purified. The note with it: remark: other sources report otherwise.
For test [11] the target is unchanged. The experiment in a line: ELISA vs. lysozyme, iMab dilution 1:10,000, after precipitation at pH 4.8 and redissolving. The note with it: remark: other sources report otherwise.
Test [12] has the same target. The experiment in a line: ELISA vs. lysozyme, iMab dilution 1:100, before pH 4.8 precipitation. The note with it: remark: other sources report otherwise.
The target is the same in test [13]. The experiment in a line: ELISA vs. lysozyme, iMab dilution 1:1000, after precipitation at pH 4.8 and redissolving. The conditions noted are these: remark: other sources report otherwise.
Test [14] has the same target. The experiment in a line: ELISA, lysozyme-coated well (100 µg/ml), ~50 ng iMab per well, anti-VSV-HRP; heat (60 °C) purified. The conditions noted are these: remark: other sources report otherwise.
In test [15] the target is ELK (3% skim milk powder solution).

Residue numbers refer to the chain shown, from its start. Where two headings read alike, the source gives them in different places.

chicken lysozyme (chicken), P00698, sequence (P00698 19-147 limits assumed): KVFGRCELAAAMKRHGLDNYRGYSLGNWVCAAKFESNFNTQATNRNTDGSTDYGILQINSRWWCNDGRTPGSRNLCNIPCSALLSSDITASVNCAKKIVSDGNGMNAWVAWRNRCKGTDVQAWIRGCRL

B1: iMab1200 (designed binder)
chain: HGLPMEKRGNFIVGQNCSLTCPASGYTIGPQCVFNCYFNSALAFSTENMGEWTLDMVFSDAGIYTMCAADSTIYASYYECGHGLSTGGYGYNPVSLGSFVVDSP
The molecule B1 gave an Absorbtion (450 nm) in test [1] of 0.04 A450.

B2: iMab122 (designed binder, not shown: small tags and cut ends)
chain: NVKLVEKGGNFVENDDDLKLTCRASGRTFSSRTMGWFRQAPNDDSTNVATIRWNGGSTYYTNYGDSVKERFDIRVDQASNTVTLSMDDLQPEDSAEYNCAGTDIGDGWSGRYDYRGQGTDVTVSS
Molecule B2 displayed an Absorbtion (450 nm) in test [2] of 0.051 A450.

B3: iMab1202 (designed binder, not shown: small tags and cut ends)
chain: IVKLVMEKRGNFENGQDCKLTIRASGYTIGPACDGFFCQFPSDDSFSTEDNMGGGITVNDAMKPQFDIRRDNAKGTWTLSMDFQPEGIYEMQCAADSTIYASYYECGHGLSTGGYGYDNPVRLGGFDVDVPDV
B3 displayed an Absorbtion (450 nm) in test [2] of 0.041 A450.

B4: iMab101 (designed binder, not shown: small tags and cut ends)
chain: VKLVEKGGNFVENDDDLKLTCRASGYTIGPYCMGWFRQAPNDDSTNVATINMGTVTLSMDDLQPEDSAEYNCAADSTIYASYYECGHGLSTGGYGYDSHYRGQGTDVTVSS
The molecule B4 displayed an Absorbtion (450 nm) in test [3] of 0.043 A450.

B5: iMab111 (designed binder, not shown: small tags and cut ends)
chain: NVKLVCKGGNFVENDDDLKLTCRAEGYTIGPYCMGWFRQAPNDDSTNVATINMGGGITYYGDSVKERFDIRRDNASNTVTLSMDDLQPEDSAEYNCAGDSTIYASYYECGHGLSTGGYGYDSHYRCQGTDVTVSS
In [2], B5 came in with an Absorbtion (450 nm) of 0.043 A450.

B6: iMab100 (designed binder, not shown: small tags and cut ends)
chain: B5 chain with C6E, C126G
As to B6, the Signal on Elisa in [4] amounted to 0.263; in test [6], 0.36; in [7], 0.059; in [8], 0.128; in test [9] it was 0.39; in test [11], 0.059. The Signal on Elisa in test [12] amounted to 0.228; in test [13] it was 0.169. In addition, the Absorbtion (450 nm) in test [5] turned out to be 0.041 A450; in [2] it was 0.04 A450; in [10] it was 0.494 A450; in [14], 0.369 A450.

B7: iMab1300 (designed binder, not shown: small tags and cut ends)
chain: LQVDIKPSQGEISVGESKFFLCQASGYTIGPCISWFSPNGEKLNMGSSTLTIYNANIDDAGIYKCAADSTIYASYYECGHGLSTGGYGYQSEATVNVKIFQ
In test [2], B7 came in with an Absorbtion (450 nm) of 0.041 A450.

B8: iMab1602 (designed binder, not shown: small tags and cut ends)
chain: AVKPVIGSKAPNFGENGDVKTIDRASGYTIGPTCGGVFFQGPTDDSTNVATINMGGGITYYGDSVKETFDIRRDNAKSTRTESYDDNQPEGLTEVKCAADSTIYASYYECGHGLSTGGYGYDVSSRLYGYDILVGTQ
In the case of B8, the Absorbtion (450 nm) in test [2] was 0.043 A450.

B9: iMab701 (designed binder)
chain: MASTITCEASGYTIGPACVAFDTTLGNNMGTYSAPLTSTTLGVATVTCAADSTIYASYYECGHGLSTGGYGYAAFSVPSVTVNFTA
B9 displayed an Absorbtion (450 nm) in test [15] of 0.069 A450.

B10: iMab1302 (designed binder, not shown: small tags and cut ends)
chain: VVKVVIKPSQNFIENGEDKKFTCRASGYTIGPKCIGWFSQNPEDDSTNVATINMGGGITYYGDSVKERFDIRRDNAKDTSTLSIDDAQPEDAGIYKCAADSTIYASYYECGHGLSTGGYGYDSEATVGVDIFVKLM
B10 registered an Absorbtion (450 nm) in test [2] of 0.045 A450.
